In patent US20260242735A1 (UNIVERSIT T BASEL, published 2026):

Tests used:
human CD33 D51A = human CD33 D51A (human, UniProt P20138 18-364); assay: alanine scan, flow cytometry, HEK293-T;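 note: antibody binding to each alanine-substituted CD33 mutant expressed transiently in HEK293-T, read as fluorescence minus background, mean of duplicates, relative to wild-type CD33 set as 100%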
human CD33 W60A = human CD33 W60A (human, UniProt P20138 18-364); assay: alanine scan, flow cytometry, HEK293-T;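 note: antibody binding to each alanine-substituted CD33 mutant expressed transiently in HEK293-T, read as fluorescence minus background, mean of duplicates, relative to wild-type CD33 set as 100%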
human CD33 S102A = human CD33 S102A (human, UniProt P20138 18-364); assay: alanine scan, flow cytometry, HEK293-T;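 note: antibody binding to each alanine-substituted CD33 mutant expressed transiently in HEK293-T, read as fluorescence minus background, mean of duplicates, relative to wild-type CD33 set as 100%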
human CD33 D112A = human CD33 D112A (human, UniProt P20138 18-364); assay: alanine scan, flow cytometry, HEK293-T;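 note: antibody binding to each alanine-substituted CD33 mutant expressed transiently in HEK293-T, read as fluorescence minus background, mean of duplicates, relative to wild-type CD33 set as 100%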
human CD33 T322A = human CD33 T322A (human, UniProt P20138 18-364); assay: flow cytometry, HEK293-T, alanine scan;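 note: transiently transfected HEK293-T cells expressing single alanine mutants of human CD33 (alanine residues changed to serine), antibody binding fluorescence minus background, relative to wild type CD33, mean of duplicates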
Procedure: (§1) An alanine scan on human CD33 was performed to the determine the residues on CD33 that are involved in binding to the antibodies investigated. […] Briefly, a mutation library of CD33 was created by high-throughput, site-directed mutagenesis. Each residue was individually mutated to alanine, with alanine codons mutated to serine. The mutant library was arrayed in 384-well microplates and transiently transfected into HEK293-T. Following transfection, cells were incubated with the indicated antibodies (IgG or Fab) at concentrations pre-determined using an independent immunofluorescence titration curve on wild type CD33. […] Binding of each antibody to each mutant clone was determined in duplicates. For each point, background fluorescence was subtracted from the raw data, which were then normalized to antibody reactivity with wild type CD33.
(§2) Critical residues for antibody binding (outlined in dark grey) were residues whose mutations led to a binding of the test Abs of less than 20%. Additional secondary residues (outlined in light grey) were identified that led to a binding of the test Abs of between 20 and 40% as compared to the wild type CD33.

human CD33 L343A = human CD33 L343A (human, UniProt P20138 18-364); assay: flow cytometry, HEK293-T, alanine scan;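 note: transiently transfected HEK293-T cells expressing single alanine mutants of human CD33 (alanine residues changed to serine), antibody binding fluorescence minus background, relative to wild type CD33, mean of duplicates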
Procedure: as §1, §2

human CD33 H339A = human CD33 H339A (human, UniProt P20138 18-364); assay: flow cytometry, HEK293-T, alanine scan;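 note: transiently transfected HEK293-T cells expressing single alanine mutants of human CD33 (alanine residues changed to serine), antibody binding fluorescence minus background, relative to wild type CD33, mean of duplicates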
Procedure: as §1, §2

human CD33 G318A = human CD33 G318A (human, UniProt P20138 18-364); assay: flow cytometry, HEK293-T, alanine scan;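 note: transiently transfected HEK293-T cells expressing single alanine mutants of human CD33 (alanine residues changed to serine), antibody binding fluorescence minus background, relative to wild type CD33, mean of duplicates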
Procedure: as §1, §2

human CD33 S307A = human CD33 S307A (human, UniProt P20138 18-364); assay: flow cytometry, HEK293-T, alanine scan
Procedure: as §1, §2

human CD33 C325A = human CD33 C325A (human, UniProt P20138 18-364); assay: flow cytometry, HEK293-T, alanine scan
Procedure: as §1, §2

human CD33 H285A = human CD33 H285A (human, UniProt P20138 18-364); assay: flow cytometry, HEK293-T, alanine scan
Procedure: as §1, §2

human CD33 L338A = human CD33 L338A (human, UniProt P20138 18-364); assay: flow cytometry, HEK293-T, alanine scan
Procedure: as §1, §2

human CD33 P319A = human CD33 P319A (human, UniProt P20138 18-364); assay: flow cytometry, HEK293-T, alanine scan
Procedure: as §1, §2

human CD33 P308A = human CD33 P308A (human, UniProt P20138 18-364); assay: flow cytometry, HEK293-T, alanine scan
Procedure: as §1, §2

human CD33 T302A = human CD33 T302A (human, UniProt P20138 18-364); assay: flow cytometry, HEK293-T, alanine scan
Procedure: as §1, §2

human CD33 V282A = human CD33 V282A (human, UniProt P20138 18-364); assay: flow cytometry, HEK293-T, alanine scan
Procedure: as §1, §2

human CD33 T299A = human CD33 T299A (human, UniProt P20138 18-364); assay: flow cytometry, HEK293-T, alanine scan
Procedure: as §1, §2

human CD33 Y340A = human CD33 Y340A (human, UniProt P20138 18-364); assay: flow cytometry, HEK293-T, alanine scan
Procedure: as §1, §2

human CD33 L275A = human CD33 L275A (human, UniProt P20138 18-364); assay: flow cytometry, HEK293-T, alanine scan
Procedure: as §1, §2

human CD33 K315A = human CD33 K315A (human, UniProt P20138 18-364); assay: flow cytometry, HEK293-T, alanine scan
Procedure: as §1, §2

human CD33 S314A = human CD33 S314A (human, UniProt P20138 18-364); assay: flow cytometry, HEK293-T, alanine scan
Procedure: as §1, §2

human CD33 A341S = human CD33 A341S (human, UniProt P20138 18-364); assay: flow cytometry, HEK293-T, alanine scan
Procedure: as §1, §2

human CD33 K288A = human CD33 K288A (human, UniProt P20138 18-364); assay: flow cytometry, HEK293-T, alanine scan
Procedure: as §1, §2

human CD33 T320A = human CD33 T320A (human, UniProt P20138 18-364); assay: flow cytometry, HEK293-T, alanine scan
Procedure: as §1, §2

human CD33 R286A = human CD33 R286A (human, UniProt P20138 18-364); assay: flow cytometry, HEK293-T, alanine scan
Procedure: as §1, §2

human CD33 C274A = human CD33 C274A (human, UniProt P20138 18-364); assay: flow cytometry, HEK293-T, alanine scan
Procedure: as §1, §2

human CD33 V332A = human CD33 V332A (human, UniProt P20138 18-364); assay: flow cytometry, HEK293-T, alanine scan
Procedure: as §1, §2

human CD33 S324A = human CD33 S324A (human, UniProt P20138 18-364); assay: flow cytometry, HEK293-T, alanine scan
Procedure: as §1, §2

human CD33 R296A = human CD33 R296A (human, UniProt P20138 18-364); assay: flow cytometry, HEK293-T, alanine scan
Procedure: as §1, §2

human CD33 I278A = human CD33 I278A (human, UniProt P20138 18-364); assay: flow cytometry, HEK293-T, alanine scan
Procedure: as §1, §2

human CD33 L273A = human CD33 L273A (human, UniProt P20138 18-364); assay: flow cytometry, HEK293-T, alanine scan
Procedure: as §1, §2

human CD33 A328S = human CD33 A328S (human, UniProt P20138 18-364); assay: flow cytometry, HEK293-T, alanine scan
Procedure: as §1, §2

human CD33 C276A = human CD33 C276A (human, UniProt P20138 18-364); assay: flow cytometry, HEK293-T, alanine scan
Procedure: as §1, §2

human CD33 T284A = human CD33 T284A (human, UniProt P20138 18-364); assay: flow cytometry, HEK293-T, alanine scan
Procedure: as §1, §2

human CD33 G151A = target: T1, human CD33 G151A (human, UniProt P20138 18-364); assay: alanine scan, flow cytometry, HEK293-T
T1 construct: alanine scan clone, transfected HEK293-T

human CD33 S128A = target: T2, human CD33 S128A (human, UniProt P20138 18-364); assay: alanine scan, flow cytometry, HEK293-T
T2 construct: alanine scan clone, transfected HEK293-T
T2 sequence (P20138 18-364 S128A limits assumed): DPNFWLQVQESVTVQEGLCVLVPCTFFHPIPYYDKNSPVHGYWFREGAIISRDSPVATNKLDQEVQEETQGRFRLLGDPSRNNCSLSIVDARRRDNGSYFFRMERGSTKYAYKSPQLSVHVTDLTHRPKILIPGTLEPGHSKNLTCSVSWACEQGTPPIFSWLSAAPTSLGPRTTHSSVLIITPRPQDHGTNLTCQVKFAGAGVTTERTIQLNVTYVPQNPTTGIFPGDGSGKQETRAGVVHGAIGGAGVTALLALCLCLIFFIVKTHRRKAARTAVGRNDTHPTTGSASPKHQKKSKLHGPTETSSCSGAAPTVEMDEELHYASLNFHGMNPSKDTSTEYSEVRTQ

human CD33 P319A, sequence (P20138 18-364 P319A limits assumed): as the sequence (P20138 18-364 S128A limits assumed) above, with A111S, P302A counted along it
human CD33 P308A, sequence (P20138 18-364 P308A limits assumed): as the sequence (P20138 18-364 S128A limits assumed) above, with A111S, P291A counted along it
human CD33 L338A, sequence (P20138 18-364 L338A limits assumed): as the sequence (P20138 18-364 S128A limits assumed) above, with A111S, L321A counted along it
human CD33 C276A, sequence (P20138 18-364 C276A limits assumed): as the sequence (P20138 18-364 S128A limits assumed) above, with A111S, C259A counted along it
human CD33 C325A, sequence (P20138 18-364 C325A limits assumed): as the sequence (P20138 18-364 S128A limits assumed) above, with A111S, C308A counted along it
human CD33 S102A, sequence (P20138 18-364 S102A limits assumed): as the sequence (P20138 18-364 S128A limits assumed) above, with S85A, A111S counted along it
human CD33 T322A, sequence (P20138 18-364 T322A limits assumed): as the sequence (P20138 18-364 S128A limits assumed) above, with A111S, T305A counted along it
human CD33 C274A, sequence (P20138 18-364 C274A limits assumed): as the sequence (P20138 18-364 S128A limits assumed) above, with A111S, C257A counted along it
human CD33 I278A, sequence (P20138 18-364 I278A limits assumed): as the sequence (P20138 18-364 S128A limits assumed) above, with A111S, I261A counted along it
human CD33 G318A, sequence (P20138 18-364 G318A limits assumed): as the sequence (P20138 18-364 S128A limits assumed) above, with A111S, G301A counted along it
human CD33 A328S, sequence (P20138 18-364 A328S limits assumed): as the sequence (P20138 18-364 S128A limits assumed) above, with A111S, A311S counted along it
T1 sequence (P20138 18-364 G151A limits assumed): as the sequence (P20138 18-364 S128A limits assumed) above, with A111S, G134A counted along it
human CD33 V282A, sequence (P20138 18-364 V282A limits assumed): as the sequence (P20138 18-364 S128A limits assumed) above, with A111S, V265A counted along it

Binder | Mean % WT Binding (human CD33 D51A) [% WT binding] | Mean % WT Binding (human CD33 W60A) [% WT binding] | Mean % WT Binding (human CD33 S102A) [% WT binding] | Mean % WT Binding (human CD33 D112A) [% WT binding] | Mean % WT Binding (human CD33 T322A) [% WT binding] | Mean % WT Binding (human CD33 L343A) [% WT binding] | Mean % WT Binding (human CD33 H339A) [% WT binding] | Mean % WT Binding (human CD33 G318A) [% WT binding] | Mean % WT Binding (human CD33 S307A) [% WT binding] | Mean % WT Binding (human CD33 C325A) [% WT binding] | Mean % WT Binding (human CD33 H285A) [% WT binding] | Mean % WT Binding (human CD33 L338A) [% WT binding] | Mean % WT Binding (human CD33 P319A) [% WT binding] | Mean % WT Binding (human CD33 P308A) [% WT binding] | Mean % WT Binding (human CD33 T302A) [% WT binding] | Mean % WT Binding (human CD33 V282A) [% WT binding] | Mean % WT Binding (human CD33 T299A) [% WT binding] | Mean % WT Binding (human CD33 Y340A) [% WT binding] | Mean % WT Binding (human CD33 L275A) [% WT binding] | Mean % WT Binding (human CD33 K315A) [% WT binding] | also measured
Refmab #5 (antibody, V domains shown, Full-length format is human IgG1 Fc silent (PG-LALA); also made as Fab; The alanine scan used IgG or Fab) VH: QVQLVQSGAEVKKPGASVKVSCKASGYTFTNYDINWVRQAPGQGLEWIGWIYPGDGSTKYNEKFKAKATLTADTSTSTAYMELRSLRSDDTAVYYCASGYEDAMDYWGQGTTVTVSS VL: DIQMTQSPSSLSASVGDRVTINCKASQDINSYLSWFQQKPGKAPKTLIYRANRLVDGVPSRFSGSGSGQDYTLTISSLQPEDFATYYCLQYDEFPLTFGGGTKVEIK | 105 | 35.9 | 154 | 61.2 |  |  |  |  |  |  |  |  |  |  |  |  |  |  |  |  | 
Refmab #5 (antibody, V domains shown, The alanine scan used IgG or Fab) VH: QVQLVQSGAEVKKPGASVKVSCKASGYTFTNYDINWVRQAPGQGLEWIGWIYPGDGSTKYNEKFKAKATLTADTSTSTAYMELRSLRSDDTAVYYCASGYEDAMDYWGQGTTVTVSS VL: DIQMTQSPSSLSASVGDRVTINCKASQDINSYLSWFQQKPGKAPKTLIYRANRLVDGVPSRFSGSGSGQDYTLTISSLQPEDFATYYCLQYDEFPLTFGGGTKVEIK [Refmab #5, listing 1 of 2 here] |  |  |  |  | 100 | 77.8 | 82.7 | 87.1 | 83 | 107 | 116 | 105 | 70 | 73.5 | 77 | 112 | 91.1 | 88.6 | 86.4 | 112 | Mean % WT Binding (human CD33 S314A): 112 % WT binding; Mean % WT Binding (human CD33 A341S): 113 % WT binding; Mean % WT Binding (human CD33 K288A): 97.9 % WT binding; Mean % WT Binding (human CD33 T320A): 121 % WT binding; Mean % WT Binding (human CD33 R286A): 97.5 % WT binding; Mean % WT Binding (human CD33 C274A): 87.4 % WT binding; Mean % WT Binding (human CD33 V332A): 71.6 % WT binding; Mean % WT Binding (human CD33 S324A): 96.6 % WT binding; Mean % WT Binding (human CD33 R296A): 99.5 % WT binding; Mean % WT Binding (human CD33 I278A): 100 % WT binding; Mean % WT Binding (human CD33 L273A): 102 % WT binding; Mean % WT Binding (human CD33 A328S): 105 % WT binding; Mean % WT Binding (human CD33 C276A): 95.4 % WT binding; Mean % WT Binding (human CD33 T284A): 103 % WT binding
Refmab #5 (antibody, V domains shown, The alanine scan used IgG or Fab) VH: QVQLVQSGAEVKKPGASVKVSCKASGYTFTNYDINWVRQAPGQGLEWIGWIYPGDGSTKYNEKFKAKATLTADTSTSTAYMELRSLRSDDTAVYYCASGYEDAMDYWGQGTTVTVSS VL: DIQMTQSPSSLSASVGDRVTINCKASQDINSYLSWFQQKPGKAPKTLIYRANRLVDGVPSRFSGSGSGQDYTLTISSLQPEDFATYYCLQYDEFPLTFGGGTKVEIK [Refmab #5, listing 2 of 2 here] |  |  |  |  |  |  |  |  |  |  |  |  |  |  |  |  |  |  |  |  | Mean % WT Binding (human CD33 G151A): 99.6 % WT binding; Mean % WT Binding (human CD33 S128A): 283 % WT binding
Refmab #6 (antibody, V domains shown, Full-length format is human IgG1 Fc silent (PG-LALA); also made as Fab; The alanine scan used IgG or Fab) VH: QVQLQQPGAEVVKPGASVKMSCKASGYTFTSYYIHWIKQTPGQGLEWVGVIYPGNDDISYNQKFQGKATLTADKSSTTAYMQLSSLTSEDSAVYYCAREVRLRYFDVWGQGTTVTVSS VL: EIVLTQSPGSLAVSPGERVTMSCKSSQSVFFSSSQKNYLAWYQQIPGQSPRLLIYWASTRESGVPDRFTGSGSGTDFTLTISSVQPEDLAIYYCHQYLSSRTFGQGTKLEIK | 61.7 | 2.1 | 85.1 | 51.6 |  |  |  |  |  |  |  |  |  |  |  |  |  |  |  |  | 
Refmab #6 (antibody, V domains shown, The alanine scan used IgG or Fab) VH: QVQLQQPGAEVVKPGASVKMSCKASGYTFTSYYIHWIKQTPGQGLEWVGVIYPGNDDISYNQKFQGKATLTADKSSTTAYMQLSSLTSEDSAVYYCAREVRLRYFDVWGQGTTVTVSS VL: EIVLTQSPGSLAVSPGERVTMSCKSSQSVFFSSSQKNYLAWYQQIPGQSPRLLIYWASTRESGVPDRFTGSGSGTDFTLTISSVQPEDLAIYYCHQYLSSRTFGQGTKLEIK [Refmab #6, listing 1 of 2 here] |  |  |  |  |  |  |  |  |  |  |  |  |  |  |  |  |  |  |  |  | Mean % WT Binding (human CD33 G151A): 91.1 % WT binding; Mean % WT Binding (human CD33 S128A): 127 % WT binding
Refmab #6 (antibody, V domains shown, The alanine scan used IgG or Fab) VH: QVQLQQPGAEVVKPGASVKMSCKASGYTFTSYYIHWIKQTPGQGLEWVGVIYPGNDDISYNQKFQGKATLTADKSSTTAYMQLSSLTSEDSAVYYCAREVRLRYFDVWGQGTTVTVSS VL: EIVLTQSPGSLAVSPGERVTMSCKSSQSVFFSSSQKNYLAWYQQIPGQSPRLLIYWASTRESGVPDRFTGSGSGTDFTLTISSVQPEDLAIYYCHQYLSSRTFGQGTKLEIK [Refmab #6, listing 2 of 2 here] |  |  |  |  | 110 | 101 | 99.3 | 89.1 | 116 | 111 | 103 | 103 | 85.2 | 103 | 101 | 108 | 104 | 101 | 94.6 | 99.2 | Mean % WT Binding (human CD33 S314A): 96.3 % WT binding; Mean % WT Binding (human CD33 A341S): 89.6 % WT binding; Mean % WT Binding (human CD33 K288A): 100 % WT binding; Mean % WT Binding (human CD33 T320A): 100 % WT binding; Mean % WT Binding (human CD33 R286A): 95.6 % WT binding; Mean % WT Binding (human CD33 C274A): 92.3 % WT binding; Mean % WT Binding (human CD33 V332A): 100 % WT binding; Mean % WT Binding (human CD33 S324A): 97.1 % WT binding; Mean % WT Binding (human CD33 R296A): 102 % WT binding; Mean % WT Binding (human CD33 I278A): 108 % WT binding; Mean % WT Binding (human CD33 L273A): 104 % WT binding; Mean % WT Binding (human CD33 A328S): 94 % WT binding; Mean % WT Binding (human CD33 C276A): 100 % WT binding; Mean % WT Binding (human CD33 T284A): 105 % WT binding
